B1: Guanyl-specific ribonuclease Sa, P05798 (parent)
chain: DVSGTVCLSALPPEATDTLNLIASDGPFPYSQDGVVFQNRESVLPTQSYGYYHEYTVITPGARTRGTRRIITGEATQEDYYTGDHYATFSLIDQTC

Variants of: B1
Conditions: Kitasatospora aureofaciens, Thermal, structure 1RGG, whole UniProt chain shown
[1] = pH 3, 38.6 °C, CD, Glycine 30 mM
[2] = pH 8.5, 45.9 °C, CD, Mops 30 mM

What does the source list for DVSGTVCLSALPPEATDTLNLIASDGPFPYSQDGVVFQNRESVLPTQSYGYYHEYTVITPGARTRGTRRIITGEATQEDYYTGDHYATFSLIDKTC [Q94K]?
ddG of mutation (higher = less stable) [1]: -0.2 kcal/mol; heat capacity change of unfolding [1]: 1.52 kcal/mol/K; Tm (pH 3, CD, Glycine 30 mM): 40.8 °C; change of melting temperature, mutant - wild type (higher = more stable) (pH 3, CD, Glycine 30 mM): 0.9 °C; unfolding enthalpy (van 't Hoff) (pH 3, CD, Glycine 30 mM): 64 kcal/mol; ddG of mutation (higher = less stable) (pH 7, 52.6 °C, CD, Mops 30 mM): -0.3 kcal/mol; heat capacity change of unfolding (pH 7, 52.6 °C, CD, Mops 30 mM): 1.52 kcal/mol/K; Tm (pH 7, CD, Mops 30 mM): 48.6 °C; change of melting temperature, mutant - wild type (higher = more stable) (pH 7, CD, Mops 30 mM): 0.8 °C; unfolding enthalpy (van 't Hoff) (pH 7, CD, Mops 30 mM): 96 kcal/mol; ddG of mutation (higher = less stable) [2]: -1.1 kcal/mol; heat capacity change of unfolding [2]: 1.52 kcal/mol/K

For DVSGTVCLSALPPEATDTLNLIASDGPFPYSQDGVVFQNRESVLPTQSYGYYHEYTVITPGARTRGTRRIITGEATQENYYTGDHYATFSLIDQTC [D79N], which “ddG of mutation (higher = less stable)” value [1] is on record?
Its value is 1.2 kcal/mol.

What about the “heat capacity change of unfolding” value [1] of the same variant?
The value was 1.52 kcal/mol/K.

And the Tm (pH 3, CD, Glycine 30 mM)?
Its Tm is 35.1 °C.

What about the “change of melting temperature, mutant - wild type (higher = more stable)” value (shortened to “change of melting temperature, mutant”) (pH 3, CD, Glycine 30 mM) of the same variant?
The value was -4.8 °C.

And the “unfolding enthalpy (van 't Hoff)” value (pH 3, CD, Glycine 30 mM)?
Its value is 69 kcal/mol.

What about the “ddG of mutation (higher = less stable)” value (pH 7, 52.6 °C, CD, Mops 30 mM) of the same variant?
Its value is -1.8 kcal/mol.

And the “heat capacity change of unfolding” value (pH 7, 52.6 °C, CD, Mops 30 mM)?
Its value is 1.52 kcal/mol/K.

What about the “ddG of mutation (higher = less stable)” value (pH 7, 52.6 °C, DSC, Mops 30 mM) of the same variant?
The value was -1.8 kcal/mol.

And the “heat capacity change of unfolding” value (pH 7, 52.6 °C, DSC, Mops 30 mM)?
Its value is 1.52 kcal/mol/K.

And the Tm (pH 7, CD, Mops 30 mM)?
Its Tm is 53.4 °C.

And the “change of melting temperature, mutant” value (pH 7, CD, Mops 30 mM)?
The value was 5.5 °C.

And the “unfolding enthalpy (van 't Hoff)” value (pH 7, CD, Mops 30 mM)?
Its value is 96 kcal/mol.

And the “ddG of mutation (higher = less stable)” value [2]?
Its value is -2.3 kcal/mol.

And the “heat capacity change of unfolding” value [2]?
The value was 1.52 kcal/mol/K.

What about the Tm (pH 8.5, CD, Mops 30 mM) of the same variant?
The Tm was 46.3 °C.

What about the “change of melting temperature, mutant” value (pH 8.5, CD, Mops 30 mM) of the same variant?
The value was 7.6 °C.

And the “unfolding enthalpy (van 't Hoff)” value (pH 8.5, CD, Mops 30 mM)?
The value was 65 kcal/mol.

With DVSGTVCLSALPPEATDTLNLIASDGPFPYSQDGVVFQNRESVLPTQSYGYYHEYTVITPGARTRGTRRIITGEATQEKYYTGDHYATFSLIDQTC [D79K] as the variant, how does the “ddG of mutation (higher = less stable)” value (pH 7, 52.6 °C, CD, Mops 30 mM) read?
Its value is -2.3 kcal/mol.

And the “heat capacity change of unfolding” value (pH 7, 52.6 °C, CD, Mops 30 mM)?
Its value is 1.52 kcal/mol/K.

And the “ddG of mutation (higher = less stable)” value (pH 7, 52.6 °C, DSC, Mops 30 mM)?
Its value is -2.3 kcal/mol.

And the “heat capacity change of unfolding” value (pH 7, 52.6 °C, DSC, Mops 30 mM)?
The value was 1.52 kcal/mol/K.

And the Tm (pH 7, CD, Mops 30 mM)?
Its Tm is 55.4 °C.

What about the “change of melting temperature, mutant” value (pH 7, CD, Mops 30 mM) of the same variant?
The value was 7.6 °C.

And the “unfolding enthalpy (van 't Hoff)” value (pH 7, CD, Mops 30 mM)?
Its value is 88 kcal/mol.

What does the source list for DVSGTVCLSALPPEATDTLNLIASDGPFPYSQDGVVFQNRESVLPTQSYGYYHEYTVITPGARTRGTRRIITGEATQEAYYTGDHYATFSLIDQTC [D79A]?
ddG of mutation (higher = less stable) [1]: 0.3 kcal/mol; heat capacity change of unfolding [1]: 1.52 kcal/mol/K; Tm (pH 3, CD, Glycine 30 mM): 38.6 °C; change of melting temperature, mutant - wild type (higher = more stable) (pH 3, CD, Glycine 30 mM): -1.3 °C; unfolding enthalpy (van 't Hoff) (pH 3, CD, Glycine 30 mM): 75 kcal/mol; ddG of mutation (higher = less stable) (pH 7, 52.6 °C, CD, Mops 30 mM): -2.8 kcal/mol; heat capacity change of unfolding (pH 7, 52.6 °C, CD, Mops 30 mM): 1.52 kcal/mol/K; ddG of mutation (higher = less stable) (pH 7, 52.6 °C, DSC, Mops 30 mM): -2.7 kcal/mol; heat capacity change of unfolding (pH 7, 52.6 °C, DSC, Mops 30 mM): 1.52 kcal/mol/K; Tm (pH 7, CD, Mops 30 mM): 57 °C; change of melting temperature, mutant - wild type (higher = more stable) (pH 7, CD, Mops 30 mM): 9.2 °C; unfolding enthalpy (van 't Hoff) (pH 7, CD, Mops 30 mM): 94 kcal/mol; Tm (pH 8.5, CD, Mops 30 mM): 50.4 °C; change of melting temperature, mutant - wild type (higher = more stable) (pH 8.5, CD, Mops 30 mM): 11.7 °C; unfolding enthalpy (van 't Hoff) (pH 8.5, CD, Mops 30 mM): 95 kcal/mol

Which “ddG of mutation (higher = less stable)” value [1] does the source give for DVSGTVCLSALPPEATDTLNLIASDGPFPYSQDGVVFQNRESVLPTQSYGYYHEYTVITPGARTRGTRRIITGEATQEFYYTGDHYATFSLIDQTC [D79F] here?
The value was 0.3 kcal/mol.

And the “heat capacity change of unfolding” value [1]?
The value was 1.52 kcal/mol/K.

What about the Tm (pH 3, CD, Glycine 30 mM) of the same variant?
The Tm was 38.5 °C.

And the “change of melting temperature, mutant” value (pH 3, CD, Glycine 30 mM)?
Its value is -1.4 °C.

What about the “unfolding enthalpy (van 't Hoff)” value (pH 3, CD, Glycine 30 mM) of the same variant?
The value was 67 kcal/mol.

And the “ddG of mutation (higher = less stable)” value (pH 7, 52.6 °C, DSC, Mops 30 mM)?
The value was -3 kcal/mol.

What about the “heat capacity change of unfolding” value (pH 7, 52.6 °C, DSC, Mops 30 mM) of the same variant?
The value was 1.52 kcal/mol/K.

What about the Tm (pH 7, CD, Mops 30 mM) of the same variant?
The Tm was 57.8 °C.

And the “change of melting temperature, mutant” value (pH 7, CD, Mops 30 mM)?
The value was 10 °C.

And the “unfolding enthalpy (van 't Hoff)” value (pH 7, CD, Mops 30 mM)?
The value was 89 kcal/mol.

What about the “ddG of mutation (higher = less stable)” value [2] of the same variant?
Its value is -3.7 kcal/mol.

And the “heat capacity change of unfolding” value [2]?
Its value is 1.52 kcal/mol/K.

What about the Tm (pH 8.5, CD, Mops 30 mM) of the same variant?
Its Tm is 51.8 °C.

And the “change of melting temperature, mutant” value (pH 8.5, CD, Mops 30 mM)?
Its value is 13.1 °C.

And the “unfolding enthalpy (van 't Hoff)” value (pH 8.5, CD, Mops 30 mM)?
Its value is 82 kcal/mol.

— FireProtDB (doi:10.1016/j.jmb.2005.09.091)
